For assay [1], the target named is T1, human MSLN-R2-his protein (human, UniProt Q13421 391-486).
T1 construct: also called human MSLN-R2 protein; hMSLN-R2-his; not shown: His tag
Kind of assay: ELISA, coated antigen; antibody 0.0001 nM. Background: In an ELISA, binding on a coated surface is turned into a signal by an enzyme label.

For assay [2], the target named is T1, human MSLN-R2-his protein. Kind of assay: ELISA, coated antigen; antibody 100 nM.
Assay [3] has as its target T1, human MSLN-R2-his protein. Nature of the assay: ELISA, coated antigen; antibody 0.1 nM.
In assay [4] the target is T2, human MSLN-R3-his protein (human, UniProt Q13421 487-598).
T2 construct: also called human MSLN-R3 protein; hMSLN-R3-his; not shown: His tag
T2 sequence (Q13421 495-606): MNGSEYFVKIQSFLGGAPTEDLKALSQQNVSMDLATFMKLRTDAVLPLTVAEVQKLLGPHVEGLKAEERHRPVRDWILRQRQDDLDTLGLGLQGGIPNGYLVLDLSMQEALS
Nature of the assay: ELISA, coated antigen; antibody 100 nM.

Assay [5] deals with T2, human MSLN-R3-his protein. Nature of the assay: ELISA, coated antigen; antibody 1 nM.
For assay [6], the target named is T3, human MSLN-R3-3 polypeptide (human).
T3 construct: also called human MSLN-R3-3 protein; hMSLN-R3-3
Kind of assay: ELISA, coated antigen; no antibody (blank, column 'none').

Assay [7] has as its target T3, human MSLN-R3-3 polypeptide. Kind of assay: ELISA, coated antigen; antibody 1 nM.
Assay [8] addresses T2, human MSLN-R3-his protein. Kind of assay: ELISA, coated antigen; antibody 10 nM.
For assay [9], the target named is T2, human MSLN-R3-his protein. Kind of assay: ELISA, coated antigen; antibody 0.01 nM.
Assay [10] concerns the target T1, human MSLN-R2-his protein. Nature of the assay: ELISA, coated antigen; no antibody (blank, column 'none').
In assay [11] the target is T3, human MSLN-R3-3 polypeptide. Nature of the assay: ELISA, coated antigen; antibody 0.001 nM.
The target of assay [12] is T1, human MSLN-R2-his protein. Nature of the assay: ELISA, coated antigen; antibody 1 nM.
Assay [13] has as its target T2, human MSLN-R3-his protein. Kind of assay: ELISA, coated antigen; antibody 0.0001 nM.
Assay [14] addresses T2, human MSLN-R3-his protein. Nature of the assay: ELISA, coated antigen; antibody 0.001 nM.
The target in assay [15] is T3, human MSLN-R3-3 polypeptide. Kind of assay: ELISA, coated antigen; antibody 0.1 nM.
Assay [16] deals with T1, human MSLN-R2-his protein. Kind of assay: ELISA, coated antigen; antibody 0.001 nM.
Assay [17] deals with T1, human MSLN-R2-his protein. Kind of assay: ELISA, coated antigen; antibody 10 nM.
Assay [18] has as its target T1, human MSLN-R2-his protein. Nature of the assay: ELISA, coated antigen; antibody 0.01 nM.
Assay [19] has as its target T2, human MSLN-R3-his protein. Nature of the assay: ELISA, coated antigen; antibody 0.1 nM.
The target of assay [20] is T3, human MSLN-R3-3 polypeptide. Nature of the assay: ELISA, coated antigen; antibody 100 nM.
For assay [21] the target is unchanged. Kind of assay: ELISA, coated antigen; antibody 0.01 nM.
For assay [22] the target is unchanged. Kind of assay: ELISA, coated antigen; antibody 0.0001 nM.
The target in assay [23] is T2, human MSLN-R3-his protein. Kind of assay: ELISA, coated antigen; no antibody (blank, column 'none').
The target of assay [24] is T3, human MSLN-R3-3 polypeptide. Nature of the assay: ELISA, coated antigen; antibody 10 nM.
The target of assay [25] is T4, human MSLN-hFc protein (Acro, Cat. No. MSN-H5253) (human, UniProt Q13421 296-580).
T4 construct: bought protein; also called human MSLN full-length protein; not shown: human Fc (hFc) of the bought protein
T4 sequence (Q13421 other isoform, or with tags, fused parts or gaps limits assumed): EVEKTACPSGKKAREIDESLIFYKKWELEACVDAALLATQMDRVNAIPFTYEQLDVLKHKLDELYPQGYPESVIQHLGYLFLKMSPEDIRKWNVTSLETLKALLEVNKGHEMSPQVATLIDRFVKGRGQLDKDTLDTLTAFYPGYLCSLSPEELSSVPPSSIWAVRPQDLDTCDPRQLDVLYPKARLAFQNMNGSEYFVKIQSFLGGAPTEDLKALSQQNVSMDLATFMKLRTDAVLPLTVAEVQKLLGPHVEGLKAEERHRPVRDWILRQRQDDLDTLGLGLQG
Nature of the assay: ELISA, coated human MSLN-hFc, antibody 0.001 nM.

Assay [26] deals with T4, human MSLN-hFc protein (Acro, Cat. No. …). Nature of the assay: ELISA, coated human MSLN-hFc, antibody 0.1 nM.
For assay [27] the target is unchanged. Kind of assay: ELISA, coated human MSLN-hFc, antibody 10 nM.
The target is the same in assay [28]. Kind of assay: ELISA, coated human MSLN-hFc, antibody 100 nM.
For assay [29] the target is unchanged. Nature of the assay: ELISA, coated human MSLN-hFc, antibody 0.01 nM.
Assay [30] shares this target. Nature of the assay: ELISA, coated human MSLN-hFc, antibody 1 nM.
Assay [31] has the same target. Kind of assay: ELISA, coated human MSLN-hFc, antibody 0.0001 nM.

T1 sequence (Q13421 other isoform, or with tags, fused parts or gaps): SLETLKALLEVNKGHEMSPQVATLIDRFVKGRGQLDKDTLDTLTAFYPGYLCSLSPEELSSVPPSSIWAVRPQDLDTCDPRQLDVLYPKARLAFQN

B1: S009-F3-63.5 (antibody, human IgG1, kappa, V domains shown)
VH: QVQLQQSGAELVRPGASVTLSCKASGYTFTDYEMHWVKQTPVHGLEWIGGIDPETGDTAYNQQFKGKAILTADRSSSTAYMELRSLTSEDSAVYYCTNYASSREDYWGQGTTLTVSS
VL: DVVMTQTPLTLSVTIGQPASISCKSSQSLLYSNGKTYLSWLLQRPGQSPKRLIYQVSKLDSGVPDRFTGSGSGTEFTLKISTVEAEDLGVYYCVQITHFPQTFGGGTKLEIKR
notes: Human-murine chimeric antibody, human IgG1/kappa constant regions
For the molecule B1, the OD450 in assay [1] turned out to be 0.06 OD450; in assay [2], 0.09 OD450; in assay [3], 0.05 OD450; in assay [4], 2.36 OD450; in [5], 1.78 OD450; in [6], 0.07 OD450. Besides, the OD450 in assay [7] is 1.75 OD450; in [8], 1.98 OD450; in [9], 0.41 OD450; in assay [10] it was 0.07 OD450; in [11], 0.1 OD450; in assay [12], 0.05 OD450. Besides, the OD450 in assay [13] came to 0.06 OD450; in [14] it was 0.1 OD450; in [15], 1.46 OD450; in assay [16] it was 0.05 OD450; in assay [17], 0.07 OD450; in assay [18], 0.05 OD450. Moreover, the OD450 in assay [19] was 1.43 OD450; in [20] it was 2.3 OD450; in assay [21], 0.4 OD450; in assay [22], 0.07 OD450; in assay [23] it was 0.06 OD450; in assay [24], 1.95 OD450.

B2: F2.39.3-H5 (scFv, not shown: small tags and cut ends)
scFv: EVQLVQSGAEVKKPGASVKVSCKASGYTFTNYWMHWVRQAPGQGLEWMGNINPSSGDSYYNERFMSRVTMTVDKSTSTAYMELSSLRSEDTAVYYCARSGGLWLAFWGQGTLVTVSSGGGGSGGGGSGGGGSDIVMTQSPDSLAVSLGERATINCKSSQTLLNSVSQNNYLAWYQQKPGQSPKLLIYFASTRESGVPDRFSGSGSGTDFTLTISSLQAEDVAVYYCQQHYRTPYTFGGGTKVEIK
notes: also called S009-F2.39.3 humanized VH2 + VL1
As to B2, the OD450 nm stood at 0.06 in [25]; 0.11 in assay [26]; 1.21 in assay [27]; 1.87 in [28]; 0.06 in assay [29]; 0.39 in [30]. This molecule yielded an OD450 nm in [31] of 0.06.

B3: F2.39.3-H2 (scFv, not shown: small tags and cut ends)
scFv: EVQLVQSGAEVKKPGASVKVSCKASGYTFTNYWMHWVRQAPGQGLEWMGNINPSSGDSYYNERFMSRVTMTVDKSTSTVYMELSSLRSEDTAVYYCARSGGLWLAFWGQGTLVTVSSGGGGSGGGGSGGGGSDIVMTQSPDSLAVSLGERATINCKSSQTLLNSVSQNNYLAWYQQKPGQSPTLLIYFASTRESGVPDRFSGSGSGTDFTLTISSLQAEDVAVYYCQQHYRTPYTFGGGTKVEIK
notes: also called S009-F2.39.3 humanized VH1 + VL2
In the case of B3, the OD450 nm was 0.06 in assay [25]; 0.1 in assay [26]; 1.19 in assay [27]; 1.82 in assay [28]; 0.06 in [29]; 0.3 in assay [30]. This molecule also yielded an OD450 nm in assay [31] of 0.06.

B4: F2.39.3-H1 (scFv, not shown: small tags and cut ends)
scFv: EVQLVQSGAEVKKPGASVKVSCKASGYTFTNYWMHWVRQAPGQGLEWMGNINPSSGDSYYNERFMSRVTMTVDKSTSTVYMELSSLRSEDTAVYYCARSGGLWLAFWGQGTLVTVSSGGGGSGGGGSGGGGSDIVMTQSPDSLAVSLGERATINCKSSQTLLNSVSQNNYLAWYQQKPGQSPKLLIYFASTRESGVPDRFSGSGSGTDFTLTISSLQAEDVAVYYCQQHYRTPYTFGGGTKVEIK
notes: expressed as VH-(G4S)3-VL-his or VL-(G4S)3-VH-his; also called S009-F2.39.3 humanized VH1 + VL1
In the case of B4, the OD450 nm in assay [25] was 0.06; in assay [26] it was 0.17; in [27] it was 1.23; in [28], 1.68; in assay [29], 0.07; in [30], 0.55. The molecule further returned an OD450 nm in assay [31] of 0.06.

B5: S009-F3.74.20 (antibody, human IgG1, kappa, V domains shown)
VH: RVQLQQSGAELVRPGASVTLSCKASGYTFTDSEMHWVKQTPVHGLEWIGAIDPEIDGTAYNQNFRDKAILTADKSSSTAYMELRSLTSEDSAVYYCTTYFGSGYGYFDVWGTGTTVTVSS
VL: DVVMTQTPLSLSVSLGDQASISCRSSQSLVYSNGNTYLHWFLQKPGQSPKLLIYKVSNRFSGVPDRFSGSGSGTDFTLKINRVEAEDLGVYFCSQSTHIPFTFGAGTKLELKR
notes: as for B1
For B5, the OD450 in [1] stood at 0.06 OD450; in [2] it was 0.09 OD450; in [3] it was 0.06 OD450; in assay [4], 2.06 OD450; in assay [5], 1.88 OD450; in assay [6], 0.07 OD450. Moreover, the OD450 worked out at 1.83 OD450 in [7]; 1.83 OD450 in [8]; 0.29 OD450 in assay [9]; 0.07 OD450 in assay [10]; 0.09 OD450 in [11]; 0.09 OD450 in [12]. The OD450 worked out at 0.07 OD450 in assay [13]; 0.1 OD450 in [14]; 0.96 OD450 in assay [15]; 0.06 OD450 in assay [16]; 0.17 OD450 in assay [17]; 0.06 OD450 in assay [18]. The OD450 came out at 1.07 OD450 in assay [19]; 2.07 OD450 in [20]; 0.21 OD450 in [21]; 0.07 OD450 in assay [22]; 0.09 OD450 in [23]; 1.9 OD450 in [24].

B6: S009-F3.80.22 (antibody, human IgG1, kappa, V domains shown)
VH: QVQLQQSGAELVRPGASVTLSCKASGYTFTDYEIHWVKQTPVHGLEWIGAFDPEIGGSAYNQKFKDRATLTADKSSSTAYMELHSLTAEDSAVYYCTDYYGSSSGYFDVWGTGTTVTVSS
VL: DVVMTQTPLSLPVSLGDQASISCRSSQSLEHNNGNTYLHWFLHKPGQSPKLLIYKVSNRFSGVPDRFSGSGSGTDFTLKISRVEAEDLGVYFCSQSTHVPFTFGSGTKLEIKR
notes: as for B1
On to B6, for which the OD450 in [1] was determined as 0.07 OD450; in [2], 0.06 OD450; in [3], 0.06 OD450; in assay [4], 2.02 OD450; in assay [5], 1.91 OD450; in [6], 0.08 OD450. The OD450 was determined as 1.84 OD450 in [7]; 1.88 OD450 in [8]; 0.51 OD450 in assay [9]; 0.07 OD450 in assay [10]; 0.15 OD450 in assay [11]; 0.06 OD450 in assay [12]. In addition, the OD450 amounted to 0.08 OD450 in assay [13]; 0.12 OD450 in assay [14]; 1.47 OD450 in assay [15]; 0.06 OD450 in assay [16]; 0.17 OD450 in [17]; 0.07 OD450 in [18]. The OD450 in [19] was found to be 1.55 OD450; in assay [20] it was 1.93 OD450; in assay [21], 0.55 OD450; in [22], 0.08 OD450; in assay [23], 0.08 OD450; in assay [24], 1.91 OD450.

The values are drawn from US20250250357A1 (NANJING ZAIMING PHARMACEUTICAL, published 2025).
